The values that follow come from PMC2911444 (Journal of molecular biology, 2008).

Assay in all cases: cryo-EM structure
In data set [1] the target is pentameric vertex complex of CIV (vertex protein) (Chilo iridescent virus (CIV)).
In data set [2] the target is zip protein (CIV minor capsid protein) (Chilo iridescent virus (CIV)).
The data set “cryo-EM structure” concerns the molecule itself.

“pentameric vertex complex of CIV (vertex protein) (natural protein)” yielded a stoichiometry N in data set [1] of 5.
The molecule “zip protein (CIV minor capsid protein) (natural protein)” gave a stoichiometry N in data set [2] of 2.

B1: P50, the CIV major capsid protein (MCP) (natural protein)
chain: MSISSSNVTSGFIDIATKDEIEKYMYGGKTSTAYFVRETRKATWFTQVPVSLTRANGSANFGSEWSASISRAGDYLLYTWLRVRIPSVTLLSTNQFGANGRIRWCRNFMHNLIRECSITFNDLVAARFDHYHLDFWAAFTTPASKAVGYDNMIGNVSALIQPQPVPVAPATVSLPEADLNLPLPFFFSRDSGVALPTAALPYNEMRINFQFHDWQRLLILDNIAAVASQTVVPVVGATSDIATAPVLHHGTVWGNYAIVSNEERRRMGCSVRDILVEQVQTAPRHVWNPTTNDAPNYDIRFSHAIKALFFAVRNTTFSNQPSNYTTASPVITSTTVILEPSTGAFDPIHHTTLIYENTNRLNHMGSDYFSLVNPWYHAPTIPGLTGFHEYSYSLAFNEIDPMGSTNYGKLTNISIVPTASPAAKVGAAGTGPAGSGQNFPQTFEFIVTALNNNIIRISGGALGFPVL
For B1, the “stoichiometry N” value in the data set “cryo-EM structure” came out at 3.
